In patent US8716437B2 (priority 2007, dated 2014):
Residue numbers refer to the chain shown, from its start. Where “and” joins values, the source holds several entries; their conditions need not be identical. Equal entries are not always repeated. Where no end group is shown, it is not given here.

Assays:
BK = target: T1, BK (Mus musculus, UniProt Q08460); test: Two electrode voltage clamp, Xenopus oocytes, BK; assay type: cell-based
T1 construct: expressed in transfected cells; host or cells: Xenopus laevis oocytes (cRNA injection)
T1 sequence (Q08460 whole entry): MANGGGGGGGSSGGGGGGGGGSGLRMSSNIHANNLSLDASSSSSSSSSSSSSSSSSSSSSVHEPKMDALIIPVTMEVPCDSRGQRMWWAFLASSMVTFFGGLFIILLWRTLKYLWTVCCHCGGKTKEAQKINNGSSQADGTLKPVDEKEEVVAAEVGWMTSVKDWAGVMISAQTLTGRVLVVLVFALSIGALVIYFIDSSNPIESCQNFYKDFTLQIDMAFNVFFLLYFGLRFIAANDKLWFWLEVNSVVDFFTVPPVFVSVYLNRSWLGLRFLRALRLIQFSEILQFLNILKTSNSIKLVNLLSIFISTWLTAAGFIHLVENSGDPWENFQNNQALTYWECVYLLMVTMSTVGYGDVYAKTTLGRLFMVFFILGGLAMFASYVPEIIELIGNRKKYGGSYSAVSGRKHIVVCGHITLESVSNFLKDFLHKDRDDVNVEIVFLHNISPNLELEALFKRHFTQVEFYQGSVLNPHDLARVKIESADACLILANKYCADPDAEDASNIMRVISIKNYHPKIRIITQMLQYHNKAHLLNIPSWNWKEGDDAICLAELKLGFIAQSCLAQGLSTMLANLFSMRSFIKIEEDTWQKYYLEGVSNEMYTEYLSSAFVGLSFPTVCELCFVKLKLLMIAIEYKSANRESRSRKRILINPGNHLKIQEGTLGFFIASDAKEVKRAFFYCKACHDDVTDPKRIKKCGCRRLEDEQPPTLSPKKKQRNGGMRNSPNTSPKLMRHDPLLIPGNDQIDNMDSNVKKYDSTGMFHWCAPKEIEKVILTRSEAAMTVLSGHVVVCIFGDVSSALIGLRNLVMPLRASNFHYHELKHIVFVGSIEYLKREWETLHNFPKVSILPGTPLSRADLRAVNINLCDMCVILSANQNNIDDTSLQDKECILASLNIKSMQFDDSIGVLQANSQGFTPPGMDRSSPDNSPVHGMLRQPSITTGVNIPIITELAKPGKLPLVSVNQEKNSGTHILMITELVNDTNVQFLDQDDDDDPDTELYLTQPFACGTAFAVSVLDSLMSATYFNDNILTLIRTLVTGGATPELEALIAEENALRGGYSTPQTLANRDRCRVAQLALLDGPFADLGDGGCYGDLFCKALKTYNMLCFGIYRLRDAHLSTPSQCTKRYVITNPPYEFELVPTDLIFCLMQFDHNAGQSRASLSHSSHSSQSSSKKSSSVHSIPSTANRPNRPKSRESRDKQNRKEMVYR
Protocol: (§1) To examine the effect of mokatoxin-1 on activity of potassium ion channels, cDNA encoding Rattus Kv1.1 (NCBI accession number NM_173095), Rattus Kv1.2 (NM_012970), Homo Kv1.3 (NM_002232), or Mus BK (NM_010610) were subcloned into oocyte expression vectors based on PCR3.1 and pGEM. cRNA synthesis was performed with T7 polymerase and the mMessageMachine Kit (Ambion, Austin, Tex.) according to manufacturers instructions. cRNA concentrations were determined spectroscopically. For two electrode voltage clamp recordings oocytes were extracted from Xenopus laevis and defoliculated with Collagenase Type 2 (Worthington, Lakewood, N.J.). Oocytes were maintained in ND91 solution containing 2 mM KCl, 91 mM NaCl, 1 mM MgCl2, 1.8 mM CaCl2, and 5 mM HEPES, pH 7.5, supplemented with 1% Penicillin/Streptomycin (Cellgro, Hemdon, Va.) and 0.1% Gentamycin sulfate (Gibco, Grand Island, N.Y.)) at 16° C. Stage V and VI oocytes were injected with 8 pg to 4 ng cRNA, and currents recorded 1 to 4 days later.
(§2) For dose-response measurements of toxin block of Kv1.1, Kv1,2, or Kv1.3 peak currents were recorded during a 500 ms step to 0 mV from a holding voltage of −100 mV, followed by a 200 ms step to −135 mV every 30 s. To determine the kinetics of toxin block oocytes were held at −100 mV and stepped to the test voltage of 0 mV for 100 ms followed by a 200 ms duration step to −135 mV every 2 s. BK currents were recorded during a 50 ms step to +60 mV from a holding voltage of −80 mV, followed by a 40 ms step to −100 mV every 3 s. The perfusion solution contained 2 mM KCl, 96 mM NaCl, 1 mM MgCl2, 1.8 mM CaCl2, 5 mM HEPES, pH 7.5 and 0.1% fatty acid ultra-free BSA fraction V (Roche Diagnostics Corporation, Indianapolis, Ind.). Data acquisition and processing was performed with an oocyte clamp OC-725B (Warner Instruments Corporation, Hamden, Conn.), pCLAMP (Axon, Sunnyvale, Calif.), IGOR Pro (WaveMetrics, Lake Oswego, Oreg.), and Origin6.1 (OriginLab Corporation, Northampton, Mass.) softwares. The equilibrium dissociation rates (KD) for block of Kv1.1, Kv1.2, and Kv1.3 by mokatoxin-1 were determined by fitting the dose-response data and kon and koff were calculated as described by Goldstein and Miller, 1993 (Biophys J. 1993 65 (4):1613-1619).

guinea pig ileum = conditions: J Pharmacol Exp Ther. 1999; cited from earlier work
Kv1.2 = target: T2, Kv1.2 (Rattus norvegicus, UniProt P63142); test: Two electrode voltage clamp, Xenopus oocytes, Kv1.2; assay type: cell-based
T2 construct: expressed in transfected cells; host or cells: Xenopus laevis oocytes (cRNA injection)
T2 sequence (P63142 whole entry): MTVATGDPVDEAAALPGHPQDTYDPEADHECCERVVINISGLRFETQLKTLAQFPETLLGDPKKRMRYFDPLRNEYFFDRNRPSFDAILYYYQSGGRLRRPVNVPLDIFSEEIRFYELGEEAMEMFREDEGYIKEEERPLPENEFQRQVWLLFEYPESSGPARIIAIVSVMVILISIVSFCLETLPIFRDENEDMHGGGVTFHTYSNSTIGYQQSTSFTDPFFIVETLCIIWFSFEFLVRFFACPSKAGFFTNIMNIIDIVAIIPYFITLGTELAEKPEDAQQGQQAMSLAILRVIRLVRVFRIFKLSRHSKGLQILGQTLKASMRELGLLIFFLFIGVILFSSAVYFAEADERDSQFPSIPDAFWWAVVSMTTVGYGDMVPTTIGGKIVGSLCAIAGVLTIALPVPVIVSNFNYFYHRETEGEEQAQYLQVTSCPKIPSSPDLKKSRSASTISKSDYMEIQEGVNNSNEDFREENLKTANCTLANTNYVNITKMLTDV
Protocol: as §1, §2

Kv1.3 = Kv1.3 (Homo sapiens, UniProt P22001); test: Two electrode voltage clamp, Xenopus oocytes, Kv1.3; assay type: cell-based; parameters: expressed in transfected cells; host or cells: Xenopus laevis oocytes (cRNA injection)
Kv1.3, sequence (P22001 whole entry): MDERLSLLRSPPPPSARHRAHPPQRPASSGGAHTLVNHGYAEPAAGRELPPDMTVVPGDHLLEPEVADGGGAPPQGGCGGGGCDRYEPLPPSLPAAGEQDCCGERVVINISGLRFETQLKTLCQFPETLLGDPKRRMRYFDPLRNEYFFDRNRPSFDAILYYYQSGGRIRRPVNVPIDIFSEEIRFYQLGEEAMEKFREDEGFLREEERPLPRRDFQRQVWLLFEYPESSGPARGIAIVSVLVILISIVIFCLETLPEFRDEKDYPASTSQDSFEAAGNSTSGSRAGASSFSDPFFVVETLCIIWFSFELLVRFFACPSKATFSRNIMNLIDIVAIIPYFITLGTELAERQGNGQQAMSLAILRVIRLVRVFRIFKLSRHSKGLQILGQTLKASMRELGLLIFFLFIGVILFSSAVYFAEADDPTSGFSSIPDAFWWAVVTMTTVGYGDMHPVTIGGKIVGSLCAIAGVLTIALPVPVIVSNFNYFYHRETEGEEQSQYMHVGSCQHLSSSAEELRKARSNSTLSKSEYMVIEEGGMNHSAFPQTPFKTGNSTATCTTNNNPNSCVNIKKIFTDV
Excerpt: Thereafter, MK-1 was synthesized. […] The blocking of […] by MK-1 is represented by filled circles; the blocking of Kv1.2 by MK-1 is represented by filled diamonds; and the blocking of Kv1.1 by MK-1 is represented by filled triangles.
as §1, §2

Kv1.1 = target: T3, Kv1.1 (Rattus norvegicus, UniProt P10499); test: Two electrode voltage clamp, Xenopus oocytes, Kv1.1; assay type: cell-based
T3 construct: expressed in transfected cells; host or cells: Xenopus laevis oocytes (cRNA injection)
T3 sequence (P10499 whole entry): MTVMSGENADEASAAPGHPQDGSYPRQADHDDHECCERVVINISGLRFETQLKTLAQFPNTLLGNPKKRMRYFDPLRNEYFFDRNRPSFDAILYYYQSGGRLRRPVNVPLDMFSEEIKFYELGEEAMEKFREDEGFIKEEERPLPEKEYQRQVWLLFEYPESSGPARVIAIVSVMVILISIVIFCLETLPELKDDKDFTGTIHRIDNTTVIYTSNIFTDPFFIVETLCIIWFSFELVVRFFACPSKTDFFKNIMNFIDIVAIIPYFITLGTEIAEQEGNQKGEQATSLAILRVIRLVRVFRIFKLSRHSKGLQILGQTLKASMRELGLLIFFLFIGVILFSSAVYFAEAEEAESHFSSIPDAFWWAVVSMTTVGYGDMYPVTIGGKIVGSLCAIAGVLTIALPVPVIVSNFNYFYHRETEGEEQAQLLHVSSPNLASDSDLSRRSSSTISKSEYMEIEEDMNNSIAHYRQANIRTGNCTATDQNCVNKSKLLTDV
Protocol: as §1, §2

[1] = target: KcsA carrying a segment of the Kv1.3 pore loop (KcsA-1.3)
[2] = target: Kv1.2 K+ channel, species not stated
[3] = target: BK channel, species not stated
[4] = target: Kv1.3 K+ channel, wild-type, species not stated
[5] = target: Kv1.1 K+ channel, species not stated
[6] = target: Kv1.3 K+ channel, wild-type, species not stated; remark: listed apart in the source
[7] = target: Kv1.3 K+ channel, wild-type, species not stated; test: phage panning on HEK cells
[8] = target: Kv1.3 K+ channel, wild-type, species not stated; remark: listed apart in the source
[9] = target: Kv1.3 K+ channel, wild-type, species not stated; remark: listed apart in the source
[10] = target: Kv1.3 K+ channel, wild-type, species not stated; remark: listed apart in the source
[11] = target: Kv1.3 K+ channel, wild-type, species not stated; test: phage panning on COS cells
[12] = target: KcsA carrying a segment of the Kv1.3 pore loop (KcsA-1.3); remark: listed apart in the source
[13] = target: Kv1.3 K+ channel, wild-type, species not stated; test: one round of panning of KTX and nonspecific phages on cells expressing Kv1.3
[14] = target: KcsA carrying a segment of the Kv1.3 pore loop (KcsA-1.3); test: panning of a 1:99 mixture of Shk and Camel VHH phages on KcsA-1.3, n = 17-20
Rattus Kv1.2 (Rattus) = Rattus Kv1.2 (Rattus) (UniProt P63142)
human Kv1.3 (Homo) [15] = target: human Kv1.3 (Homo) (UniProt P22001)
[16] = target: Mus BK (mouse big conductance calcium-activated K channel) (Mus) (UniProt Q08460)
Rattus Kv1.1 (Rattus) = Rattus Kv1.1 (Rattus) (UniProt P10499)
human Kv1.3 (Homo) [17] = target: human Kv1.3 (Homo) (UniProt P22001); remark: listed apart in the source
[18] = target: KcsA carrying a segment of the Kv1.3 pore loop (KcsA-1.3); test: library panning on immobilised KcsA-1.3
[19] = target: KcsA carrying a segment of the Kv1.3 pore loop (KcsA-1.3); remark: listed apart in the source
Rattus Kv1.1 = Rattus Kv1.1 (Rattus, UniProt P10499); test: cell-based or functional assay
human Kv1.3 = human Kv1.3 (Homo, UniProt P22001); test: cell-based or functional assay
Rattus Kv1.2 = Rattus Kv1.2 (Rattus, UniProt P63142); test: cell-based or functional assay
[20] = target: Mus BK (mouse big conductance calcium-activated K channel) (Mus, UniProt Q08460); test: cell-based or functional assay

CC[C@H](C)[C@@H]1NC(=O)[C@@H]2CSSC[C@@H]3NC(=O)[C@H](CCCCN)NC(=O)[C@H](CCCNC(=N)N)NC(=O)[C@H](CC(N)=O)NC(=O)[C@H](CCSC)NC(=O)[C@H](CSSC[C@H](NC(=O)[C@H](CO)NC(=O)[C@@H](NC(=O)[C@H](CC(N)=O)NC(=O)[C@@H](NC(=O)[C@@H]4CCCN4C(=O)[C@@H](NC(=O)CN)C(C)C)[C@@H](C)CC)C(C)C)C(=O)N[C@@H]([C@@H](C)O)C(=O)NCC(=O)N[C@@H](CO)C(=O)N4CCC[C@H]4C(=O)N[C@@H](CCC(N)=O)C(=O)N2)NC(=O)[C@H](CCCCN)NC(=O)CNC(=O)[C@H](Cc2ccccc2)NC(=O)[C@H](CCCNC(=N)N)NC(=O)[C@H](CCSC)NC(=O)CNC(=O)[C@H](C)NC(=O)[C@H](CC(=O)O)NC(=O)[C@H](CCCCN)NC(=O)[C@H](CSSC[C@@H](C(=O)N[C@H](C(=O)N2CCC[C@H]2C(=O)N[C@@H](CCCCN)C(=O)O)[C@@H](C)O)NC(=O)[C@H](Cc2c[nH]cn2)NC3=O)NC(=O)[C@@H]2CCCN2C(=O)[C@H](CCCCN)NC1=O [AgTX2, agitoxin-2]
IC50 (BK): ~1150 nM | ileum contractions (guinea pig ileum): contractions | IC50 (Kv1.2): 26.8 nM | IC50 (Kv1.3): 4 pM | IC50 (Kv1.1): 0.04 nM

Dendroaspis natriuretic peptide (DNP) phage (from UniProt P28374)
Output (% Ligands) [1]: 0%

Kaliotoxin-1 (KTX) (peptide)
approximate IC50 [2]: 1.4 nM | approximate IC50 [3]: 5 nM | approximate IC50 [4]: 0.5 nM | approximate IC50 [5]: 0.1 nM

Kaliotoxin-1 phage (KTX-phage)
% of recovered phage, 2nd round [6]: 0% | % of recovered phage, 3rd round [6]: 58% | fold enrichment (Kv1.3 transfected against vector cells) [7]: 20 fold | % of phage after the 2nd panning [8]: 40% | Output (% Ligands) [1]: 100% | OUTPUT KTX (%) [9]: 22% and 30% and 26% | Kv1.3 current, whole-cell patch-clamp [10]: 35% | fold enrichment (Kv1.3 transfected against vector cells) [11]: 10 fold | Fold Enrichment [12]: 3.6 fold | Fold Enrichment [13]: 4.3 fold and 5.2 fold

Shk phage (sea anemone Stichodactyla helianthus ShK toxin on phage)
% phages, OUTPUT [14]: 20%

agitoxin-2 (AgTx2) (peptide)
approximate IC50 [2]: 26.8 nM | approximate IC50 [3]: 1150 nM | approximate IC50 [4]: 0.004 nM | approximate IC50 [5]: 0.04 nM

charybdotoxin (CTX) (peptide)
approximate IC50 [2]: 5.6 nM | approximate IC50 [3]: 3 nM | approximate IC50 [4]: 2.5 nM | approximate IC50 [5]: 1500 nM

fasciculin-2 phage (from UniProt P0C1Z0)
Output (% Ligands) [1]: 0%

mokatoxin-1 (peptide)
Ki (block of channel current) (Rattus Kv1.2 (Rattus)): 620 nM | Koff (block of channel current) (Rattus Kv1.2 (Rattus)): 0.16 [s]^-1 | Kon (block of channel current) (Rattus Kv1.2 (Rattus)): 260000 [M · s]^-1 | Ki (block of channel current) (human Kv1.3 (Homo) [15]): 1 nM | Koff (block of channel current) (human Kv1.3 (Homo) [15]): 0.059 [s]^-1 | Kon (block of channel current) (human Kv1.3 (Homo) [15]): 3.6e+07 [M · s]^-1 | Ki (block of channel current) [16]: > 1 µM | Ki (block of channel current) (Rattus Kv1.1 (Rattus)): > 1 µM | approximate IC50 [2]: 680 nM | approximate IC50 [3]: > 1000 nM | approximate IC50 [4]: 3 nM | approximate IC50 [5]: > 1000 nM | IL-2, TNF-α and IFN-γ secretion by CD3/CD28 activated human T cells (ELISA) (human Kv1.3 (Homo) [17]): 50%

mokatoxin-1-phage
% of phage after the 2nd panning [8]: 15% | % of the eluted phage after two rounds of panning [18]: 16.6% | % of the phage isolated after two rounds of selection [19]: 60%

sarafotoxin S6b phage (from UniProt P13208)
Output (% Ligands) [1]: 0%

B1: Kaliotoxin-1 (KTX) (peptide)
peptide: GVEINVKCSGSPQCLKPCKDAGMRFGKCMNRKCHCTPK
Ki (block of channel current) (Rattus Kv1.1): 1.1 nM | Koff (block of channel current) (Rattus Kv1.1): 0.009 [s]^-1 | Kon (block of channel current) (Rattus Kv1.1): 3e+07 [M · s]^-1 | Ki (block of channel current) (human Kv1.3): 0.008 nM | Koff (block of channel current) (human Kv1.3): 0.007 [s]^-1 | Kon (block of channel current) (human Kv1.3): 8e+08 [M · s]^-1 | Ki (block of channel current) (Rattus Kv1.2): 20 nM | Koff (block of channel current) (Rattus Kv1.2): 0.21 [s]^-1 | Kon (block of channel current) (Rattus Kv1.2): 1.3e+07 [M · s]^-1 | Ki (block of channel current) [20]: 1.6 nM | Koff (block of channel current) [20]: 0.0211 [s]^-1 | Kon (block of channel current) [20]: 21000 [M · s]^-1

B2: agitoxin-2 (AgTx2) (peptide)
peptide: B1 peptide with E3P, K7S, S9T, L15I
modifications: ends and bridges not checked; cysteine pairing not given here
Ki (block of channel current) (Rattus Kv1.1): 0.17 nM | Ki (block of channel current) (human Kv1.3): 0.041 nM | Ki (block of channel current) (Rattus Kv1.2): 3.4 nM

B3: charybdotoxin (CTX) (peptide)
peptide: ZFTNVSCTTSKECWSVCQRLHNTSRGKCMNKKCRCYS
modifications: Z printed as first residue in Table 2
Ki (block of channel current) (Rattus Kv1.1): > 1000 nM | Ki (block of channel current) [20]: 5 nM
